The nature of this data set: yeast display, Sf9 membrane polyspecificity reagent, FACS + sequencing; frameworks hold sequencing errors. Put shortly: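 A synthetic nanobody library was expressed on Saccharomyces cerevisiae BJ5465 by galactose induction for 36–48 hours. The library was stained for 1 hour at 4 °C with 10% biotinylated, detergent-solubilized Sf9 membrane reagent and enriched with streptavidin microbeads before FACS. Low and high (top ~1%) gates were set on anti-HA fluorescence for expression and streptavidin fluorescence for reagent binding, and each polyreactivity label reflects the gate of origin.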
In the case of “QVQLVESGGGLVQAGGSLRLRCAASGITFKWYAMGWYRQATGKEREFVAIISTRAGSTYYADSVKGRFTISRDNAKNTVSLQMNSLIPEDSAVYYCNAVRSRGLHRRGDFDYWGQGTQVTVSS”, the “polyreactivity (PSR sort gate)” value was “high polyreactivity”.

Consider “QVQLVESGGGLVQAGGSLRLRCAASGITFSWYDMGWYRQAPGKERELVAAISWSGGRTYYADSVKGRFTISRDNAKNTVYLQMNSLKPEDTAVYYCNAVGVGYVGYLYGYLGQGTQVTVSS”, for which the “polyreactivity (PSR sort gate)” value is listed as “high polyreactivity”.

Consider “QVQLVESGGGLVQAGGSLRLRCAASGITLLNYAMGWYRQAPWKERELVAAISWSGGRTYYADSVKGRFTMSRDNAKNTDYLHMNSLNPQDTAVYYCAAARGVNSYGYWGQGTQVTVSS”, for which the “polyreactivity (PSR sort gate)” value is given as “high polyreactivity”.

For “QVQLVESGGGLVQAGGSLRLRCAASGITTRTYAMGWYRQAPGKERELVAAISDSGDRTYYADSVKGRFTISRDKAKNTVYFQMNSVKPEDTAVYYCAVDGPGPRCEFWGQGTKVTVSS”, the “polyreactivity (PSR sort gate)” value was “low polyreactivity”.

Regarding “QVQLVESGGGLVQAGGSLRLRCAASGLMFYDNMGCYRQAPGKERELVAAISSSGGSTSYADSVKGRFTISRDNAKNTVYLQMNSLKPEDTAVYYCAAKWSLVRDCPKYDYWGQGTQVTVSS”, the “polyreactivity (PSR sort gate)” value is “low polyreactivity”.

In the case of “QVQLVESGGGLVQAGGSLRLRCAASGLTFAYNTMGWYRQAPGKEREFVASISSSGGNTYYADSVKGRFTISRDNAKNTVYLQMNSLKPEDTAVYYCAAKKKYHYVASYKRFEYWGQGTQVTVSS”, the “polyreactivity (PSR sort gate)” value is “low polyreactivity”.

Regarding “QVQLVESGGGLVQAGGSLRLRCAASGLTFTYYAMGWYRQAPGKERELVAAISSGGNTNYADSVKGRFTISRDNAKNTVYLQMNSLKPEDTGVYYCAADDYYDHRVIYRSWYDYWGQGTQVTVSS”, the “polyreactivity (PSR sort gate)” value is listed as “low polyreactivity”.

Take “QVQLVESGGGLVQAGGSLRLRCAASGRIFGYYPMGWYRQAPGKERELDADITESGTSTYYADSVKGRFTISRDNAKNTVYLQMNSLKRVDTAVYYCAAGYWWRYALYGYWGQGTQVTVSS”: the “polyreactivity (PSR sort gate)” value is on record as “low polyreactivity”.

Take “QVQLVESGGGLVQAGGSLRLRCAASGRIFPLYAMGWYRQAPGKERELVATISYSGSSTYYADSVKGRFTISRDYAKNSVYLQMNSLKPEDTAVFYFNADAFGPPGVEYYYRGQGTQVTVSS”: the “polyreactivity (PSR sort gate)” value is “low polyreactivity”.

Consider “QVQLVESGGGLVQAGGSLRLRCAASGRIFRYYAMGWYRQAPGKARELVARITSSGSTYYADSVKGRFTISRDNAKNTVYLQMNSLKPEDTAVYYCAADWYRGGIVDSWGQGTQVTVSS”, for which the “polyreactivity (PSR sort gate)” value is listed as “high polyreactivity”.

“QVQLVESGGGLVQAGGSLRLRCAASGRIRYYGIGCYRQAPGKERELVAAITWRAGRTYYADSVKGRFTISRDNANITVYLHMNSLKPEDSAVYYCAAAIYSRSFRVDYWGQGTQVSVSS”: the “polyreactivity (PSR sort gate)” value was “high polyreactivity”.

For “QVQLVESGGGLVQAGGSLRLRCAASGRTFFVYTMGWYRQAPGKERELVAAITSDTSTTYADSVKGRFTISRDNAKNTVYLQMISLKPEDTAVYYCAAEGYVGYYDYDYWGQGTQVTVSS”, the “polyreactivity (PSR sort gate)” value is “low polyreactivity”.

On to “QVQLVESGGGLVQAGGSLRLRCAASGRTFSHYAMGWYRQAAGKESELVATITRNGGITYYADSVKGRFTISRDNAKNTVYLQMNSLKPEDTAVYYCNKRWGGPIQFDYWGQGTQVTVSS”, for which the “polyreactivity (PSR sort gate)” value is reported as “low polyreactivity”.

As for “QVQLVESGGGLVQAGGSLRLRCAASGRTFWRYAMGWYRQAPGKEREFVAAISSSGGNTYYADSVKGRFTITRDNANNTVYLQTNSLKPEDTAVYYCAAYYITALGIKDYVRYYWGQGTQVTVSS”, the “polyreactivity (PSR sort gate)” value is on record as “high polyreactivity”.

On to “QVQLVESGGGLVQAGGSLRLRCAASGRTFYPYAMGWYRQAPGKERELVAAINWSGTSTYYADSVKGRFTISRDNAKNTVYLQMNSLKPEDTAVYYCAAKQYPVLHYSLTEADMDYWGQGTQVTVSS”, for which the “polyreactivity (PSR sort gate)” value is “low polyreactivity”.

Take “QVQLVESGGGLVQAGGSLRLRCAASGRTLSSYAMGWYREAPGKERELVAAITRSGGSTYYADSVNGRFTISRDIAKNTVYLQMNSLKPEDTAVYYCAADGYRRYGSWGQGTQVTVSS”: the “polyreactivity (PSR sort gate)” value was “high polyreactivity”.

With “QVQLVESGGGLVQAGGSLRLRCAASGRTLYRYAMGWYRQAPGKEREFVAAISSSGGSTYYADSVKGSFTISRDNAKNTVYLQMNSLKPEDTAVYYCAARYGSSYAWSNYWGQGTQVTVSS”, the “polyreactivity (PSR sort gate)” value is reported as “high polyreactivity”.

Consider “QVQLVESGGGLVQAGGSLRLRCAASGSIFGLYAMGWYRQAPGKERELVAAINQSGGSTTYADSVKGRCTISRDNAKTPVYLQMNSLKPEATAGYSCPADSVGDYGYQVYASWGYEDEYCGQGTQVTVSS”, for which the “polyreactivity (PSR sort gate)” value is reported as “low polyreactivity”.

For the sequence “QVQLVESGGGLVQAGGSLRLRCAASGSIFKPYAMGWYRQAPGNERELVAAINRGGTSTYYADSVKGRFTISRDNAKNTVYFQMNSLKPEDTAVYYCAAPNRYSVPMYYWGQGTQVTVSS”, the “polyreactivity (PSR sort gate)” value is “low polyreactivity”.

As for “QVQLVESGGGLVQAGGSLRLRCAASGSIFNSYAMGWYIQAPGKERELVAAISIRGTRTYYADSVKGRFTISRDNAKNTVYLQMNSLKPEDTAVYYCAADASYTEGMDYWGQGTQVTVLS”, the “polyreactivity (PSR sort gate)” value is on record as “high polyreactivity”.

For “QVQLVESGGGLVQAGGSLRLRCAASGSIFRRYAMGRYRQAPGKERELVATITSTDSTNYADSVKGRFTISRDNAKNTVYLQMNSLKPEDTAVYYCAKRPYDYRLNSEYYYWGQGTQVTVSS”, the “polyreactivity (PSR sort gate)” value is recorded as “low polyreactivity”.

Consider “QVQLVESGGGLVQAGGSLRLRCAASGSTFINNAMGWYRQAPGKERELVAAISGSGVSTYYADSVKGRFTISRDNAKNTVYLQMNSLKPEDTAVYYCNKRYRNYFWYKPYSTKYEYWGQGTQVTVSS”, for which the “polyreactivity (PSR sort gate)” value was “high polyreactivity”.

Regarding “QVQLVESGGGLVQAGGSLRLRCAASGSTFPPNAMGWYRQAPGKERELVAVISNGGSNTRYADSVKGRFTISRDHAKNTVYLQMNSLKPEDTAVYYCAADYEYSGYGYWGQGTQVTVSS”, the “polyreactivity (PSR sort gate)” value is reported as “high polyreactivity”.

With “QVQLVESGGGLVQAGGSLRLRCAASGSTFRQYAMGWYRQAPGKERELVAAISSGGRTNYADSVKGRFTISRDNAKNTVYLQMNSLKPEDTAVYYCAADIRRRVPVRGYYYWGQGTQVTVSS”, the “polyreactivity (PSR sort gate)” value is “high polyreactivity”.

As to “QVQLVESGGGLVQAGGSLRLRCAASGSTYVYAIGWYRQAPGKDRELVASISWSDSSTYYADSVKGRFTISRDNAKNTVYLQMNSLKPEETAFYYCNADQGTRDSDYWGQGTQVTVSS”, the “polyreactivity (PSR sort gate)” value is listed as “low polyreactivity”.

For “QVQLVESGGGLVQAGGSLRLRCAASGYTFPSNAKGWYRQAPGKERELVAPISSGGRTNYADSVKGRFTISRDNAKNTVYLLMKSLKPEDTAVYYSNADGGPGYPRAYDYWGQVTQVTVSS”, the “polyreactivity (PSR sort gate)” value is listed as “low polyreactivity”.

In the case of “QVQLVESGGGLVQAGGSLRLRCAASGYTLGPYAMGWYRQAPGKEREEVAALSWGGGRTYYADSVKGRFTISRDNAKNTVYLQMNSLKPEDTAVYYCGAKWSHVRDGPKYDYWGQGTQVTVSS”, the “polyreactivity (PSR sort gate)” value is “low polyreactivity”.

For “QVQLVESGGGLVQAGGSLRLRCAATGFIFSSYAMGWYRQAPGKERELVAAINRSGSTYYADSVKGRFTISRDNAKNTVYLQMNSLKPEDTADYYCNARRYYYRYRNYDYWGQGTQVTVSS”, the “polyreactivity (PSR sort gate)” value is on record as “high polyreactivity”.

Regarding “QVQLVESGGGLVQAGGSLRLRCAATGSIFTKYAMGWYRQAPGKERELVAAISWSGSRTRYADSVKGRFTISRDNAKNTVYLQMNSLKPEDTAVYYCAAEIAASYRPEYDYWGQGTQVTVSS”, the “polyreactivity (PSR sort gate)” value was “high polyreactivity”.

With “QVQLVESGGGLVQAGGSLRLRCADSGRNFVSNAMGWYRQAPGKERELVAAISKSGARTSYADSVKGRFTISRDNAKNTVYLQMNRLKPEDTAVYYCAAPVRWSGGGEYPNYYWGQGTQVTVSS”, the “polyreactivity (PSR sort gate)” value was “high polyreactivity”.

Consider “QVQLVESGGGLVQAGGSLRLRCADSGSTFYDNAMGWYRQATGKVRELVATISDSGGRTYYADSVKGRFTISRDNAKNTVYLQMNSLKPEDTAVYYCAADNYYITTVTDMYYWGQGTQVTVSS”, for which the “polyreactivity (PSR sort gate)” value was “low polyreactivity”.

Consider “QVQLVESGGGLVQAGGSLRLRCAPSGSIFSAYAMGWYRQAPGKVREVVAGISKSGARTYYADSVKGRFTLSRDNAKNTVYLQMNRLKPEDTAVYYCAAVDYYLYYYWGQGTQVTVSS”, for which the “polyreactivity (PSR sort gate)” value is “high polyreactivity”.

With “QVQLVESGGGLVQAGGSLRLRCGASGFIFEHYAMGWYRPAPAKERDFVAAISGSGGNKYYADSVKGRFTISRDNAKNTVYLQMNSLKPEDTAVYSCNKVDGTTLDDHYMDYWGQGTQVTVSS”, the “polyreactivity (PSR sort gate)” value was “low polyreactivity”.

Take “QVQLVESGGGLVQAGGSLRLRGAAAGYNFLRYAIGWYRQAPGTERELVAAITNTGNTNYADSVKGRFTISRDNAKNTVYLQMNSLKPEDTAVYSCAAEYYWYSWKNRYKEYDYWGQGTQVTLSS”: the “polyreactivity (PSR sort gate)” value was “low polyreactivity”.

As for “QVQLVESGGGLVQAGGSLRLRGAASGFTFLYYAMGWYRQAPGKERELVAAITWSGDSTYYADSEKGRFTISRDYAMNTVYLQMNSLKPEDTAVYYCATGGVTFGSVVRGVDGDYWGQGTQVTVSS”, the “polyreactivity (PSR sort gate)” value is recorded as “low polyreactivity”.

For the sequence “QVQLVESGGGLVQAGGSLRLRGAASGSTFYRYAMGWSRQAPGKERELVAAISWSAGRTYYADSVKGRFTISRYTAKNTVYLQMNSLKPEDTAVYYCAARGWYKSDYWGQGTQVTVSS”, the “polyreactivity (PSR sort gate)” value was “low polyreactivity”.

Consider “QVQLVESGGGLVQAGGSLRLSCAAAGRIFSYNAMGWYRQAPGKERELVAAISSGGSTYYADSVKGRFTISRDNAKNTFYLQMNSLKPEDTAVYYCAADRRYYSDMYYWGQGTQVTVSS”, for which the “polyreactivity (PSR sort gate)” value is recorded as “low polyreactivity”.

Take “QVQLVESGGGLVQAGGSLRLSCAAAGRIFVQYDMGWYRQAAGKERELVAAIIDSGDITYYADSVKGRYTSSRDNAKNTVYLQMNSLKPEDTAVYDCAASAAYYGFYKSVTYDYWGQGTQVTVSS”: the “polyreactivity (PSR sort gate)” value is listed as “low polyreactivity”.

“QVQLVESGGGLVQAGGSLRLSCAAAGRTIRRIAMGWYRQAPGKERELVAAISKSGGRTYYADSVKGRFTISRDKAKKTVYLQMNSMKPEDTAVYYCGAYDTVYNSGDYDYWGQGTQVTVSS”: the “polyreactivity (PSR sort gate)” value is reported as “high polyreactivity”.

“QVQLVESGGGLVQAGGSLRLSCAAAGSTFSSYAMGWYRQAPGKERELVAAITSSGGSTYYADSVKGRFSISRDNAKNTVYIQKNSLKPEDTAVYYCAAADVIFWLYYYWGQGTQVTVSS”: the “polyreactivity (PSR sort gate)” value is listed as “low polyreactivity”.

For the sequence “QVQLVESGGGLVQAGGSLRLSCAAARYAMGWYRPAPGKERELVAAISKSGGSTYYADSVKGRFTISRDNAKNTVYLQMNSLIPEDTAVYYCAARGHAGRGEYYYWGQGTQVTVSS”, the “polyreactivity (PSR sort gate)” value is “high polyreactivity”.

Values taken from the nanobody polyreactivity screen of Harvey et al. (2022).
